Results from PMC2873993, “Comparative Therapeutic Effects of Velaglucerase Alfa and Imiglucerase in a Gaucher Disease Mouse Model” (PLoS ONE, 2010).
Substitutions are numbered along the chain they refer to.

B1: velaglucerase alfa (protein)
chain: ARPCIPKSFGYSSVVCVCNATYCDSFDPPTFPALGTFSRYESTRSGRRMELSMGPIQANHTGTGLLLTLQPEQKFQKVKGFGGAMTDAAALNILALSPPAQNLLLKSYFSEEGIGYNIIRVPMASCDFSIRTYTYADTPDDFQLHNFSLPEEDTKLKIPLIHRALQLAQRPVSLLASPWTSPTWLKTNGAVNGKGSLKGQPGDIYHQTWARYFVKFLDAYAEHKLQFWAVTAENEPSAGLLSGYPFQCLGFTPEHQRDFIARDLGPTLANSTHHNVRLLMLDDQRLLLPHWAKVVLTDPEAAKYVHGIAVHWYLDFLAPAKATLGETHRLFPNTMLFASEACVGSKFWEQSVRLGSWDRGMQYSHSIITNLLYHVVGWTDWNLALNPEGGPNWVRNFVDSPIIVDITKDTFYKQPMFYHLGHFSKFIPEGSQRVGLVASQKNDLDAVALMHPDGSAVVVVLNRSSKDVPLTIKDPAVGFLETISPGYSIHTYLWRRQ
modifications: N-linked oligosaccharides with higher α-mannosyl content (predominant number of mannoses is 9)
B2: imiglucerase (protein)
chain: B1 chain with R495H
modifications: short N-linked oligosaccharide chains with ~3 exposed α-mannosyl residues

Columns and labels:
cathepsin D = experiment: Protease susceptibility to cathepsin D digestion; assay type: biochemical; settings: for degradation by cathepsin D after 4 h: cathepsin D 1 µg/ml; for degradation by cathepsin D within 4 h: cathepsin D 2 µg/ml
Method: Vela and Imig were compared for kinetic properties as described. Briefly, the standard GCase activity assay contained final concentrations of 50 mM citrate/phosphate, pH 5.5, 0.25% TC, 0.25% TX, and 4 mM 4MU-Glc in 200 µl. The reactions were stopped after incubation (30–60 min, 37°C) using 0.9 M ethylenediamine, pH 11.0 (100 µl). Standard curves for 4-MU fluorescence yield were generated for each assay with Ex/Em 460/515 nm (Molecular Dynamics SpectraMax GeminXS spectrofluorometer). […] For the reversible competitive inhibitors, Ki was calculated from IC50 = Ki (1+ [I]/[Km]). The IC50 or Ki values for various inhibitors (dNM and its derivatives, CBE, CS, IFG, DNPFG) were determined using 4MU-Glc as substrate. Activities with the NBD-GC substrate were as described. Enzyme assays with saposin C (0–500 nM/0.5 µM BPS) and BPS (0–2 µM) were as described, [40]. Saposin C was expressed in E. coli and purified as described. For thermostability assessments, equal amounts of Vela and Imig activities were added to 50 mM citrate/phosphate, pH 7.4, with or without human/mouse serum, and incubated for 0–240 min at 25 or 37°C. The pH optimum profiles were developed using 50 mM citrate/phosphate, pH 4.4–7.2. […] All assays were conducted in triplicate and repeated at least twice. The amounts of intact enzyme were determined from density measurements on immunoblots and were compared to the initial amounts. The ratios of intact enzyme with and without cathepsin D were used as indicators of the enzyme's proteolytic susceptibility.

9 V/null mice [1] = experiment: Storage cell quantification in liver and lung; assay type: in vivo, mouse; settings: for numbers of storage cells in lungs (CD68): any dose
Description: (§1) Mice were sacrificed one week after the last injection, and sera and organs were collected for serologic studies, GCase activities, GC levels, and quantification of storage cells. At one week after the last injection, the GCase activities in liver, spleen, and lung had returned to background levels (not shown).
(§2) Mice were anesthetized with isoflurane.
Duplicate tissue sections were fixed in 10% formalin for hematoxylin and eosin (H&E) staining and in 4% paraformaldehyde-PBS, pH 7.4 for immunohistochemistry with CD68 antibody and examined using a Zeiss microscope equipped with SPOT Advance software (SPOT Diagnostic Instruments, Inc.). […] Mice (n = 6–14) in the Vela-, Imig-, or saline-treated groups were used, and the resultant data were analyzed using the Student's t-test.

[2] = GCase activity assay with NBD-GC substrate; assay type: biochemical; settings: mean ± SE, n = 10
Method: Vela and Imig were compared for kinetic properties as described. Briefly, the standard GCase activity assay contained final concentrations of 50 mM citrate/phosphate, pH 5.5, 0.25% TC, 0.25% TX, and 4 mM 4MU-Glc in 200 µl. The reactions were stopped after incubation (30–60 min, 37°C) using 0.9 M ethylenediamine, pH 11.0 (100 µl). Standard curves for 4-MU fluorescence yield were generated for each assay with Ex/Em 460/515 nm (Molecular Dynamics SpectraMax GeminXS spectrofluorometer). […] For the reversible competitive inhibitors, Ki was calculated from IC50 = Ki (1+ [I]/[Km]). The IC50 or Ki values for various inhibitors (dNM and its derivatives, CBE, CS, IFG, DNPFG) were determined using 4MU-Glc as substrate. Activities with the NBD-GC substrate were as described. Enzyme assays with saposin C (0–500 nM/0.5 µM BPS) and BPS (0–2 µM) were as described, [40]. Saposin C was expressed in E. coli and purified as described. […] Protease susceptibilities of the two GCases were evaluated by cathepsin D (1–2 µM) digestion in 25 mM sodium acetate, pH 4.8, 50 mM NaCl, 1.25 mM EDTA, 1.25 mM DTT using 200 ng of Vela or Imig at 37°C for 4 h. […] The amounts of intact enzyme were determined from density measurements on immunoblots and were compared to the initial amounts. […]

[3] = Activation of GCase by BPS in detergent-free system; assay type: biochemical; settings: for increase of activity with BPS: BPS 0 to 2 µM, detergent-free; for BPS concentration of maximal activation: in the absence of saposin C
Method: Activation of Vela and Imig by the negatively charged lipid, BPS, and saposin C was determined in a detergent-free system with varying concentrations of either agent. The activities of both enzymes increased by 5- to 6-fold or 15- to 17-fold with saposin C (0 to 500 nM) or BPS (0 to 2 µM), respectively. […] Similarly, in the absence of saposin C, both enzymes reacted maximal activation with 0.5 µM of BPS. No significant differences were found in these responses (p = 0.5875–0.8473).
Vela and Imig were compared for kinetic properties as described. Briefly, the standard GCase activity assay contained final concentrations of 50 mM citrate/phosphate, pH 5.5, 0.25% TC, 0.25% TX, and 4 mM 4MU-Glc in 200 µl. The reactions were stopped after incubation (30–60 min, 37°C) using 0.9 M ethylenediamine, pH 11.0 (100 µl). Standard curves for 4-MU fluorescence yield were generated for each assay with Ex/Em 460/515 nm (Molecular Dynamics SpectraMax GeminXS spectrofluorometer). […] For the reversible competitive inhibitors, Ki was calculated from IC50 = Ki (1+ [I]/[Km]). The IC50 or Ki values for various inhibitors (dNM and its derivatives, CBE, CS, IFG, DNPFG) were determined using 4MU-Glc as substrate. Activities with the NBD-GC substrate were as described. Enzyme assays with saposin C (0–500 nM/0.5 µM BPS) and BPS (0–2 µM) were as described, [40]. Saposin C was expressed in E. coli and purified as described. For thermostability assessments, equal amounts of Vela and Imig activities were added to 50 mM citrate/phosphate, pH 7.4, with or without human/mouse serum, and incubated for 0–240 min at 25 or 37°C. The pH optimum profiles were developed using 50 mM citrate/phosphate, pH 4.4–7.2. Protease susceptibilities of the two GCases were evaluated by cathepsin D (1–2 µM) digestion in 25 mM sodium acetate, pH 4.8, 50 mM NaCl, 1.25 mM EDTA, 1.25 mM DTT using 200 ng of Vela or Imig at 37°C for 4 h. All assays were conducted in triplicate and repeated at least twice. The amounts of intact enzyme were determined from density measurements on immunoblots and were compared to the initial amounts. The ratios of intact enzyme with and without cathepsin D were used as indicators of the enzyme's proteolytic susceptibility.

9 V/null mice [4] = experiment: Injection-related deaths; assay type: in vivo, mouse; settings: 60 U/kg once a week for 8 weeks
Method: With additional injections, IgG positivity increased in all dosing groups and several mice died. With the 5 or 15 U/kg/wk doses only a few mice died, whereas with 60 U/kg/wk doses, 9/42 Vela-injected and 20/59 Imig-injected mice died following injections during the 4- to 8-wk period (Table 5). Prior to death, these mice became immobile and their lips/tails became cyanotic. Most mice died within 30 to 60 min post-injection. However, placing treated mice in an oxygen chamber for 20 to 30 min after injection led to the survival of most of the animals. The mice that succumbed were immediately dissected, and sera were analyzed for IgE titers and histology. […] Total serum IgE levels from these mice injected with Vela or Imig were 46.4 to 234.9 ng/ml (n = 3) or 115.8 to 239.6 ng/ml (n = 3), respectively (p = 0.3626). In comparison, saline-injected 9 V/null serum values were 6.8 to 8.8 ng/ml (n = 6) (Fig. 7B).
as §2

9 V/null mice [5] = experiment: GC levels in liver, spleen and lung after weekly enzyme injections; assay type: in vivo, mouse; settings: for GC lipid levels in lung: 5 and 15 U/kg/wk; for reduction of GC levels in liver: 15 U/kg/wk (before 8 wks); for decrease of GC in lung (suggested trend): variable; for reduction of GC levels in spleen: all three dosing groups; for reduction of GC levels and storage cell numbers in livers / reduction of GC levels and storage cell numbers in spleens: dose dependent, 5, 15 or 60 U/kg/wk, abstract
Description: as §1, §2
GC levels in liver, lung, and spleen from 9 V/null and WT mice were quantified by LC/MS-MS (Lipidomic Core, University of South Carolina). The GC levels were normalized to protein in the same lysates used for GCase activity and expressed as the percentage change relative to the GC levels of matched samples from saline-injected mice. WT lysates were used as a reference. The Student's t-test was used for statistical comparisons.

[6] = 5 or 15 U/kg/wk, week 4 or 8, compared to saline-injected controls

| Molecule | degradation by cathepsin D after 4 h (cathepsin D) | degradation by cathepsin D within 4 h (cathepsin D) | numbers of storage cells in lungs (CD68) (9 V/null mice [1]) | GCase activity, NBD-GC [2] | increase of activity with BPS [3] | BPS concentration of maximal activation [3] | Death (%) of total injected mice (9 V/null mice [4]; No-oxygen) | Death, number of mice (9 V/null mice [4]; No-oxygen) | Death (%) of total injected mice (9 V/null mice [4]; Oxygen chamber minimum 20 min) | Death, number of mice (9 V/null mice [4]; Oxygen chamber minimum 20 min) | Death (%) of total injected mice (9 V/null mice [4]; Total number) | Death, number of mice (9 V/null mice [4]; Total number) | GC lipid levels in lung (9 V/null mice [5]) | decrease of GC levels in liver (9 V/null mice [5]; [6]) | reduction of GC levels in liver (9 V/null mice [5]) | decrease of GC in lung (suggested trend) (9 V/null mice [5]; 60 U/kg/wk, 8 wks) | decrease of GC levels in liver (9 V/null mice [5]; 60 U/kg/wk, week 4) | reduction of GC levels in spleen (9 V/null mice [5]; 4 wks) | reduction of GC levels in spleen (9 V/null mice [5]; 8 wks) | reduction of GC levels and storage cell numbers in livers (9 V/null mice [5]) | further results |
| --- | --- | --- | --- | --- | --- | --- | --- | --- | --- | --- | --- | --- | --- | --- | --- | --- | --- | --- | --- | --- | --- |
| B1 | 72–76% | completely degraded | not different from saline control | 1,321,057±67,237 nmole/h/mg | 15- to 17 fold | 0.5 µM | 22.6% | 7 | 18.2% | 2 | 21% | 9 | unchanged | 50–70% | ~66% | ~10% | ~85% | 10–15% | 20–30% | 60–95% | difference in cellular clearance compared to Imig (9 V/null mice [1]; lungs, Gaucher cells, not significant): ~10%; reduction of GC levels and storage cell numbers in spleens (9 V/null mice [5]): 10–30% |
| B2 | 72–76% | completely degraded | not different from saline control | 1,191,610±56,390 nmole/h/mg | 15- to 17 fold | 0.5 µM | 48.4% | 15 | 17.9% | 5 | 34% | 20 | unchanged | 50–70% | ~55% | ~10% | ~70% | 10–15% | 20–30% | 60–95% | reduction of GC levels and storage cell numbers in spleens (9 V/null mice [5]): 10–30% |
